{
  "source": "patent US20190336615A1",
  "about": "(SILVERBACK THERAPEUTICS, published 2019)",
  "key": {"[1]": {"target": "T1, monomeric human CEA extracellular domain (CEA ECD; CEACAM5) (human, UniProt P06731 35-685)", "T1 construct": "extracellular domain; not tied to the assay protein; also called CEACAM5 (CEA)", "T1 sequence (looked up)": "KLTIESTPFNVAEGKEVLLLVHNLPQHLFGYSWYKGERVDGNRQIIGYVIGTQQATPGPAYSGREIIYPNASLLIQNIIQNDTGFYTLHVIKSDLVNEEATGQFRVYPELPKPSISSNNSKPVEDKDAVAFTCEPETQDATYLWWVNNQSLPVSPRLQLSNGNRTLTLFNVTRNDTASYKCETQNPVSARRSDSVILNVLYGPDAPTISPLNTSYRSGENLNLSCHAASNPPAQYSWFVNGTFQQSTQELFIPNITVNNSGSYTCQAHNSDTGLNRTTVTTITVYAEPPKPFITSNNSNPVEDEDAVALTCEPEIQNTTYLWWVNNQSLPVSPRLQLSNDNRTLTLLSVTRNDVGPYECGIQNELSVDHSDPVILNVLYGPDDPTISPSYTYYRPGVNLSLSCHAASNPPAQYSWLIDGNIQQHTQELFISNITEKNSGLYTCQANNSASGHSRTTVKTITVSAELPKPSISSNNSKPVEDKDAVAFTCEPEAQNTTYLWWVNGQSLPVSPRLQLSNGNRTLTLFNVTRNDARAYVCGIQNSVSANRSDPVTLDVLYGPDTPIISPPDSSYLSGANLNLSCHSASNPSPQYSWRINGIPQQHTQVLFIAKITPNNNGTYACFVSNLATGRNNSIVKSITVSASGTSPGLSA", "assay": "BLI (Octet), antibody on anti-human Fc sensor, monomeric ECD analyte, 1:1 model", "experimental": "(§1) The Octet systems use propriety BLI to analyze biomolecular interaction. […] Data were analyzed using Octet Data Analysis Software 9.0 (ForteBio) and fitted to the 1:1 binding model. Equilibrium dissociation constants (KD) were calculated by the […]."}, "[2]": {"target": "T2, human HER2 expressed on transiently transfected CHO cells (human, UniProt P04626 23-1255)", "T2 construct": "whole, on cells; also called HER2-expressing CHO cells; CHO-HER2", "assay": "statement in the macrophage ADCC assay with HER2-expressing CHO cells", "procedure": "Monocyte-derived macrophages were generated by culturing monocytes for 7 days in the presence of GM-CSF. […] After 24 hours, CHO viability was assessed by flow cytometry as a readout of ADCC activity.\nMonocytes were isolated from human peripheral blood mononuclear cells (PBMCs) using magnetic bead-based negative selection and cultured 7 days in the presence of GM-CSF to generate macrophages. A CHO cell line was engineered to overexpress human HER2 using standard transient transfection methods and used in assays 2 days after transfection. […] After 24 hours, CHO frequency was assessed by flow cytometry as a readout of ADCC activity."}, "[3]": {"target": "T3, monomeric human HER2 extracellular domain (HER2 ECD) (human, UniProt P04626 23-652)", "T3 construct": "extracellular domain; not tied to the assay protein; also called Hu Her2", "assay": "BLI (Octet), antibody on anti-human Fc sensor, monomeric ECD analyte, 1:1 model", "description": "(§2) The Octet systems use propriety BLI to analyze biomolecular interaction."}, "[4]": {"target": "T4, monomeric human DEC205 extracellular domain (DEC205 ECD) (human, UniProt O60449 28-1666)", "T4 construct": "extracellular domain; none tied to the assay protein", "T4 sequence (O60449 28-1666)": "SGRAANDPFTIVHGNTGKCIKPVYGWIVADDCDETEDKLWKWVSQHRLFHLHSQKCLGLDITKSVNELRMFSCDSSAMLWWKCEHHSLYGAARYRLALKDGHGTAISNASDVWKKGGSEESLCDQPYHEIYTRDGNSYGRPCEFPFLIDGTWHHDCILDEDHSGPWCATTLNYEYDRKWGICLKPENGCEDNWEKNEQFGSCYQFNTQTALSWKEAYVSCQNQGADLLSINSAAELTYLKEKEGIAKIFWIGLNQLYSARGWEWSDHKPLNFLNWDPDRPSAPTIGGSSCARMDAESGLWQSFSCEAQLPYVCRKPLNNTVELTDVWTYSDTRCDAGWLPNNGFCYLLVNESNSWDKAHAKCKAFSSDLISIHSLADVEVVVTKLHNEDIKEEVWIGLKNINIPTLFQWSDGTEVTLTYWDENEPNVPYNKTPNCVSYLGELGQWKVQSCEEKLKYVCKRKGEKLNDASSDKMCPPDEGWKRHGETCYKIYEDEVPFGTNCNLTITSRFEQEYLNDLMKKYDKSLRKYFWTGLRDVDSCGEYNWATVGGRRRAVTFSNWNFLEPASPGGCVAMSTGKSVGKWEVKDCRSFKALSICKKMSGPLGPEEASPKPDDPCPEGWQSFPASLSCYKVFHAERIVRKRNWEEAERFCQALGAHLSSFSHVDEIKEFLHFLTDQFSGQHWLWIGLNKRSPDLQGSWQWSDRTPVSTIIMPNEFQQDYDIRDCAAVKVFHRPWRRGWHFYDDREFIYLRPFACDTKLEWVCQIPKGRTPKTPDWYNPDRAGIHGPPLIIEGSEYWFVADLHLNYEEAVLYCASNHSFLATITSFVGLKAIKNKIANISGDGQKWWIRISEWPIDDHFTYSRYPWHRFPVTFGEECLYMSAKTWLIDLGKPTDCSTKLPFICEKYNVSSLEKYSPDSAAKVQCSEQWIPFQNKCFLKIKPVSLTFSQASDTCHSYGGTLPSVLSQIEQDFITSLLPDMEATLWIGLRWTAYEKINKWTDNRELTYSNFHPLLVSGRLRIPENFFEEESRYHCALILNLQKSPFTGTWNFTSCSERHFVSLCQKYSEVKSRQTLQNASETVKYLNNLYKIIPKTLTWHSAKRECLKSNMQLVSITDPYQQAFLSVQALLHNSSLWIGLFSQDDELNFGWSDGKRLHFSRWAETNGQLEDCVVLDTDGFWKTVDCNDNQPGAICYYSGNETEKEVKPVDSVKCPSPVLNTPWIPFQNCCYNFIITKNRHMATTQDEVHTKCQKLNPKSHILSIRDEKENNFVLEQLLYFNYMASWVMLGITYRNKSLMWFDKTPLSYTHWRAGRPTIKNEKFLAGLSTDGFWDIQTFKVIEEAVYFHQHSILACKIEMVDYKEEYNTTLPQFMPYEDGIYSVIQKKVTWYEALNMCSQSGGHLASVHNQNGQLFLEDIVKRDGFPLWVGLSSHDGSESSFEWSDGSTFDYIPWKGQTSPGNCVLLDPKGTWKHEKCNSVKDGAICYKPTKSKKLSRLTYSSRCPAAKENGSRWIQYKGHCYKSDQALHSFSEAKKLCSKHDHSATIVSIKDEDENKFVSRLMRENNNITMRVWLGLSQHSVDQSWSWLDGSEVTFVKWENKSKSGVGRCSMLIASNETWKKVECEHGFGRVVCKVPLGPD", "assay": "BLI (Octet), antibody on anti-human Fc sensor, monomeric ECD analyte, 1:1 model", "experimental": "as §1"}, "[5]": {"target": "T5, monomeric human CD40 extracellular domain (CD40 ECD) (human, UniProt P25942 21-193)", "T5 construct": "extracellular domain; it is not tied to the assay protein; also called Hu CD40", "T5 sequence (P25942 21-193)": "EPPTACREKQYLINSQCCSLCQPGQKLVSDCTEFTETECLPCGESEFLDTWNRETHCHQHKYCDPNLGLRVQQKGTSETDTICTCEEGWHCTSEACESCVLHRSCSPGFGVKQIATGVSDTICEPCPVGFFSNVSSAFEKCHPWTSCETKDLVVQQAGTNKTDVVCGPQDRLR", "assay": "BLI (Octet), antibody on anti-human Fc sensor, monomeric ECD analyte, 1:1 model", "description": "as §2"}},
  "data": [
    {"binder": "parental anti-CD40 monoclonal antibody (SBT-040G1) (antibody, human IgG1, kappa, Human IgG1 anti-CD40; also called Parental anti-CD40 antibody; Parental Anti-CD40 Antibody) heavy: not shown light: DIQMTQSPSSVSASVGDRVTITCRASQGIYSWLAWYQQKPGKAPNLLIYTASTLQSGVPSRFSGSGSGTDFTLTISSLQPEDFATYYCQQANIFPLTFGGGTKVEIKRTVAAPSVFIFPPSDEQLKSGTASVVCLLNNFYPREAKVQWKVDNALQSGNSQESVTEQDSKDSTYSLSSTLTLSKADYEKHKVYACEVTHQGLSSPVTKSFNRGEC", "values": [
      {"measurement": "binding result", "setting": "[1]", "value": "no binding (tested: 1.2 nM to 300 nM)"},
      {"measurement": "binding result", "setting": "[2]", "value": "no binding"},
      {"measurement": "binding result", "setting": "[3]", "value": "no binding (tested: 1.2 nM to 300 nM)"}
    ]},
    {"binder": "parental anti-HER2 monoclonal antibody (SBT-050G1), pertuzumab (antibody, human IgG1, kappa, also called Parental anti-HER2 antibody; Parental Anti-HER2 Antibody) heavy: not shown light: not shown", "values": [
      {"measurement": "binding result", "setting": "[4]", "value": "no binding (tested: 1.2 nM to 300 nM)"},
      {"measurement": "binding result", "setting": "[5]", "value": "no binding (tested: 1.2 nM to 300 nM)"}
    ]}
  ]
}
